This note sets out measurements from patent US20180057604A1 (Genentech, published 2018).

First the molecules themselves.
B1: 5543 (antibody, V domains shown)
VH: QLQLQESGPGLVKPSETLSLTCTVSGGSISSSSYYWGWIRQPPGKGLEWIGSIYYSGSTYYNPSLKSRVTISVDTSKNQFSLKLSSVTAADTAVYYCARVGHGISYFDLWGRGTLVTVSS
VL: EIVLTQSPATLSLSPGERATLSCRASQSVSSYLAWYQQKPGQAPRLLIYDASNRATGIPARFSGSGSGTDFTLTISSLEPEDFAVYYCQQAYVWPPRTFGGGTKVEIK
B2: 5902 (antibody, V domains shown)
VH: QLQLQESGPGLVKPSETLSLTCTVSGGSISSSSYYWGWIRQPPGKGLEWIGSIYRSGSTWYNPSLKSRVTISVDTSKNQFSLKLSSVTAADTAVYYCARVGHGISYFDLWGRGTLVTVSS
VL: EIVLTQSPATLSLSPGERATLSCRASQSVSSYLAWYQQKPGQAPRLLIYDASKRATGIPARFSGSGSGTDFTLTISSLEPEDFAVYYCQQVYTWPPRTFGGGTKVEIK
B3: 6266wt (Fab, V domains shown)
VH: QVQLVQSGAEVKKPGSSVKVSCKASGGTLSGYGVSWVRQAPGQGLEWMGNIIPGFGTANYAQKFQGRVTITADESTSTAYMELSSLRSEDTAVYYCARSGGTKYGMLDVWGQGTMVTVSS
VL: EIVMTQSPATLSVSPGERATLSCRASQSVSSNLAWYQQKPGQAPRLLIYGASTRATGIPARFSGSGSGTEFTLTISSLQSEDFAVYYCQQLILWPPRTFGGGTKVEIK
notes: also called ADI6266
B4: 6266.1 Fab (Fab, V domains shown)
VH: QVQLVQSGAEVKKPGSSVKVSCKASGGTLSHYGVSWVRQAPGQGLEWMGNIIPGIGTANYAQKFQGRVTITADESTSTAYMELSSLRSEDTAVYYCARSGGTKYGMLDVWGQGTMVTVSS
VL: EIVMTQSPATLSVSPGERATLSCRASQSVSSNLAWYQQKPGQAPRLLIYGASTRATGIPARFSGSGSGTEFTLTISSLQSEDFAVYYCQQLILWPPRTFGGGTKVEIK
notes: not tied singly
B5: 6266.3 Fab (Fab, V domains shown)
VH: QVQLVQSGAEVKKPGSSVKVSCKASGGTLSHYGVSWVRQAPGQGLEWMGNIIPGIGTANYAQKFQGRVTITADESTSTAYMELSSLRSEDTAVYYCARSGGTKYGMLDVWGQGTMVTVSS
VL: EIVMTQSPATLSVSPGERATLSCRASQSVSSNLAWYQQKPGQAPRLLIYGASTRAYGIPARFSGSGSGTEFTLTISSLQSEDFAVYYCQQLILWPPRTFGGGTKVEIK
B6: 6266.14 Fab (Fab, V domains shown)
VH: QVQLVQSGAEVKKPGSSVKVSCKASGGTLSGYGVSWVRQAPGQGLEWMGNIIPGFGVANYAQKFQGRVTITADESTSTAYMELSSLRSEDTAVYYCARSGGTKWGMLDVWGQGTMVTVSS
VL: EIVMTQSPATLSVSPGERATLSCRASQSVSSNLAWYQQKPGQAPRLLIYGASTRATGIPARFSGSGSGTEFTLTISSLQSEDFAVYYCQQLILWPPRTFGGGTKVEIK
B7: 6266.2 Fab (Fab, V domains shown)
VH: QVQLVQSGAEVKKPGSSVKVSCKASGGTLSHYGVSWVRQAPGQGLEWMGNIIPGIGTANYAQKFQGRVTITADESTSTAYMELSSLRSEDTAVYYCARSGGTKYGMLDVWGQGTMVTVSS
VL: EIVMTQSPATLSVSPGERATLSCRASQSVSSNLAWYQQKPGQAPRLLIYGASKRATGIPARFSGSGSGTEFTLTISSLQSEDAAVYYCQQLILWPPRTFGGGTKVEIK
B8: 6266.11 Fab (Fab, V domains shown)
VH: QVQLVQSGAEVKKPGSSVKVSCKASGGTLSGYGVSWVRQAPGQGLEWMGNIIPGFGTANYAQKFQGRVTITADESTSTAYMELSSLRSEDTAVYYCARSGGTKYGMLDVWGQGTMVTVSS
VL: EIVMTQSPATLSVSPGERATLSCRASQSVSSNLAWYQQKPGQAPRLLIYGASTRAYGIPARFSGSGSGTEFTLTISSLQSEDFAVYYCQQLILWPPRTFGGGTKVEIK
B9: 6266.6 Fab (Fab, V domains shown)
VH: QVQLVQSGAEVKKPGSSVKVSCKASGGTLSHYGVSWVRQAPGQGLEWMGNIIPGIGTANYAQKFQGRVTITADESTSTAYMELSSLRSEDTAVYYCARSGGTQYGMLDVWGQGTMVTVSS
VL: EIVMTQSPATLSVSPGERATLSCRASQSVSSNLAWYQQKPGQAPRLLIYGASTRAYGIPARFSGSGSGTEFTLTISSLQSEDAAVYYCQQLILWPPRTFGGGTKVEIK
B10: 6266.9 Fab (Fab, V domains shown)
VH: QVQLVQSGAEVKKPGSSVKVSCKASGGTLKGYGVSWVRQAPGQGLEWMGNIIPGFGTANYAQKFQGRVTITADESTSTAYMELSSLRSEDTAVYYCARGGGTKYGMLDVWGQGTMVTVSS
VL: EIVMTQSPATLSVSPGERATLSCRASQSVSSNLAWYQQKPGQAPRLLIYGASKRATGIPARFSGSGSGTEFTLTISSLQSEDFAVYYCQQLILWPPRTFGGGTKVEIK
B11: 6266.8 Fab (Fab, V domains shown)
VH: QVQLVQSGAEVKKPGSSVKVSCKASGGTLKGYGVSWVRQAPGQGLEWMGNIIPGFGTANYAQKFQGRVTITADESTSTAYMELSSLRSEDTAVYYCARGGGTKYGMLDVWGQGTMVTVSS
VL: EIVMTQSPATLSVSPGERATLSCRASQSVSSNLAWYQQKPGQAPRLLIYGASTRAYGIPARFSGSGSGTEFTLTISSLQSEDFAVYYCQQLILWPPRTFGGGTKVEIK
notes: not tied singly
B12: 6266.12 Fab (Fab, V domains shown)
VH: QVQLVQSGAEVKKPGSSVKVSCKASGGTLNGYGVSWVRQAPGQGLEWMGNIIPGFGTANYAQKFQGRVTITADESTSTAYMELSSLRSEDTAVYYCARSGGTKYGMLDVWGQGTMVTVSS
VL: EIVMTQSPATLSVSPGERATLSCRASQSVSSNLAWYQQKPGQAPRLLIYGASTRATGIPARFSGSGSGTEFTLTISSLQSEDFAVYYCQQLILWPPRTFGGGTKVEIK
B13: 6266.4 Fab (Fab, V domains shown)
VH: QVQLVQSGAEVKKPGSSVKVSCKASGGTLSHYGVSWVRQAPGQGLEWMGNIIPGIGTANYAQKFQGRVTITADESTSTAYMELSSLRSEDTAVYYCARSGGTKYGMLDVWGQGTMVTVSS
VL: EIVMTQSPATLSVSPGERATLSCRASQSVSSNLAWYQQKPGQAPRLLIYGASKRATGIPARFSGSGSGTEFTLTISSLQSEDFAVYYCQQLILWPPRTFGGGTKVEIK
B14: 6266.13 Fab (Fab, V domains shown)
VH: QVQLVQSGAEVKKPGSSVKVSCKASGGTLSGYGMSWVRQAPGQGLEWMGNIIPGFGTANYAQKFQGRVTITADESTSTAYMELSSLRSEDTAVYYCARSGGTKYGMLDVWGQGTMVTVSS
VL: EIVMTQSPATLSVSPGERATLSCRASQSVSSNLAWYQQKPGQAPRLLIYGASTRATGIPARFSGSGSGTEFTLTISSLQSEDFAVYYCQQLILWPPRTFGGGTKVEIK
B15: 6266.7 Fab (Fab, V domains shown)
VH: QVQLVQSGAEVKKPGSSVKVSCKASGGTLSHYGVSWVRQAPGQGLEWMGNIIPGIGTANYAQKFQGRVTITADESTSTAYMELSSLRSEDTAVYYCARSGGTKYGELDVWGQGTMVTVSS
VL: EIVMTQSPATLSVSPGERATLSCRASQSVSSNLAWYQQKPGQAPRLLIYGASTRAYGIPARFSGSGSGTEFTLTISSLQSEDAAVYYCQQLILWPPRTFGGGTKVEIK
B16: 6266.10 Fab (Fab, V domains shown)
VH: QVQLVQSGAEVKKPGSSVKVSCKASGGTLSGYGVSWVRQAPGQGLEWMGNIIPGFGTANYAQKFQGRVTITADESTSTAYMELSSLRSEDTAVYYCARSGGTKYGMLDVWGQGTMVTVSS
VL: EIVMTQSPATLSVSPGERATLSCRASQSVSSNLAWYQQKPGQAPRLLIYGASKRATGIPARFSGSGSGTEFTLTISSLQSEDFAVYYCQQLILWPPRTFGGGTKVEIK
B17: 6266.5 Fab (Fab, V domains shown)
VH: QVQLVQSGAEVKKPGSSVKVSCKASGGTLSHYGVSWVRQAPGQGLEWMGNIIPGIGTANYAQKFQGRVTITADESTSTAYMELSSLRSEDTAVYYCARSGGTQYGMLDVWGQGTMVTVSS
VL: EIVMTQSPATLSVSPGERATLSCRASQSVSSNLAWYQQKPGQAPRLLIYGASKRATGIPARFSGSGSGTEFTLTISSLQSEDAAVYYCQQLILWPPRTFGGGTKVEIK
B18: 6266.15 Fab (Fab, V domains shown)
VH: QVQLVQSGAEVKKPGSSVKVSCKASGGTLSGYGVSWVRQAPGQGLEWMGNIIPGFGTANYAQKFQGRVTITADESTSTAYMELSSLRSEDTAVYYCARSGGTKYGELDVWGQGTMVTVSS
VL: EIVMTQSPATLSVSPGERATLSCRASQSVSSNLAWYQQKPGQAPRLLIYGASTRATGIPARFSGSGSGTEFTLTISSLQSEDFAVYYCQQLILWPPRTFGGGTKVEIK

Broadly, the Kd is the free concentration of one partner at which half of the binding sites on the other are occupied at equilibrium, for simple one-to-one binding. Read a low Kd as higher affinity. For orientation: koff means a measure of how fast the partners let go of each other. A low value points to slow dissociation. Broadly, the kon is the rate constant with which the complex forms. A high value points to fast association.

BACE1 in primary mouse cortical neurons, sequence (P56818 46-501): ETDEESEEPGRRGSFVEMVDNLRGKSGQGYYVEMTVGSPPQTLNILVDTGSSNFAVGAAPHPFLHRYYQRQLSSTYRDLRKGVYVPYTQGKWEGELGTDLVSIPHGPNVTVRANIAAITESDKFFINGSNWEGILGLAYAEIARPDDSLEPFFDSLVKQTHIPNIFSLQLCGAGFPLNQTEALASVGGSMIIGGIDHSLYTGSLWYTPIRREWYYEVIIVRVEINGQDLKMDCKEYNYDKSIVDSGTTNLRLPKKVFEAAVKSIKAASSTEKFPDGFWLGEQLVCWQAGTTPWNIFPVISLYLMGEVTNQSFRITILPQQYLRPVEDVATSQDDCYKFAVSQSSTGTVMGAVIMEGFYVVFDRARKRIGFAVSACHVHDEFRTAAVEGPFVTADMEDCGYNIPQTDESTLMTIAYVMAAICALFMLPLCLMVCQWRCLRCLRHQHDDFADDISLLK
His-tagged BACE1 protein (Example 15), sequence (P56817 22-457 limits assumed): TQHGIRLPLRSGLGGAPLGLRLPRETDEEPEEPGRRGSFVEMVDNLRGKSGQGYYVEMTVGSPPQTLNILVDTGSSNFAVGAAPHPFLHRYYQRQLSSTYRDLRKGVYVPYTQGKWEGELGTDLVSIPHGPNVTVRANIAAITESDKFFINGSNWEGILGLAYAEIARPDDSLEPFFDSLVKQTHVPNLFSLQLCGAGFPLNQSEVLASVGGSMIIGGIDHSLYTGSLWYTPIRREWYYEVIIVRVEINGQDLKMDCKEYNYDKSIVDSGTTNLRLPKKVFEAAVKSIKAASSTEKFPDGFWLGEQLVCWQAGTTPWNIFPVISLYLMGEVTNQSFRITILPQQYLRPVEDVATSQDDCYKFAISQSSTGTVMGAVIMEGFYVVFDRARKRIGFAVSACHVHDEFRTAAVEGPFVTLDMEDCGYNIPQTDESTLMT

The first test concerns the target BACE1 in primary mouse cortical neurons (mouse, UniProt P56818 46-501). Nature of the test: cell-based or functional assay.
For B1, the “IC50, Abeta x-40 in mouse cortical neurons” value came out at 18.3 nM and the “maximal % inhibition of Abeta x-40” value is 65%.
Turning to B2, the “IC50, Abeta x-40 in mouse cortical neurons” value came out at 1.59 nM and the “maximal % inhibition of Abeta x-40” value was 67%.

The target in the next test is BACE1 (HTRF long substrate and FRET short substrate assays of Example 9D). Description: cell-based or functional assay.
Regarding B1, the “EC50, FRET short substrate” value stood at 9.11 nM and the “EC50, HTRF long substrate” value amounted to 30 nM.

A further test concerns the target His-tagged BACE1 protein (Example 15) (Homo sapiens (Human), UniProt P56817 22-457). Description: SPR (Biacore T200), Fab on captured His-BACE1. (In general: In SPR one partner is held on a chip, and binding of the other changes the refractive index at the surface.);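 also: Single-cycle kinetics with serially diluted Fab flowed over BACE1 captured by anti-His antibody on a CM5 chip, rates fitted to a one-to-one Langmuir model, Kd derived as koff over kon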
B3 displayed a dissociation constant Kd of 1.09 nM, a koff of 0.000403 s⁻¹ and a kon of 371000 M⁻¹ s⁻¹.
B4 yielded a dissociation constant (Kd) of 0.24 nM, an off-rate (koff) of 0.000161 s⁻¹ and a kon of 654000 M⁻¹ s⁻¹.
B5 had a dissociation constant (Kd) of 0.29 nM, a koff of 0.000142 s⁻¹ and a kon of 480000 M⁻¹ s⁻¹.
Regarding B6, binding was put at a Kd of 0.57 nM, the koff was 0.000474 s⁻¹ and the on-rate constant (kon) was determined as 839000 M⁻¹ s⁻¹.
As to B7, the dissociation constant (Kd) is 0.58 nM, the koff came to 0.000142 s⁻¹ and the association rate constant (kon) came to 245000 M⁻¹ s⁻¹.
On to B8, for which the equilibrium dissociation constant (Kd) amounted to 0.46 nM, the off-rate (koff) was 0.00041 s⁻¹ and the on-rate constant (kon) is 891000 M⁻¹ s⁻¹.
Molecule B9 showed a dissociation constant Kd of 0.78 nM, an off-rate constant (koff) of 0.000278 s⁻¹ and an association rate constant (kon) of 356000 M⁻¹ s⁻¹.
Molecule B10 registered a Kd of 0.68 nM, a koff of 0.000305 s⁻¹ and an association rate constant (kon) of 445000 M⁻¹ s⁻¹.
Taken in the same sequence, the figures for B11 were 0.56 nM, 0.000275 s⁻¹ and 488000 M⁻¹ s⁻¹.
B12 had a Kd of 0.52 nM, a koff of 0.000447 s⁻¹ and a kon of 854000 M⁻¹ s⁻¹.
B13: the equilibrium dissociation constant (Kd) came to 0.26 nM, the koff was found to be 0.00017 s⁻¹ and the kon came to 638000 M⁻¹ s⁻¹.
In the same order, the values of B14 are 0.56 nM, 0.000411 s⁻¹ and 734000 M⁻¹ s⁻¹.
In turn, B15 returned a Kd of 0.62 nM, an off-rate constant (koff) of 0.000333 s⁻¹ and an on-rate constant (kon) of 542000 M⁻¹ s⁻¹.
In turn, B16 showed a Kd of 0.69 nM, a koff of 0.000506 s⁻¹ and an on-rate (kon) of 756000 M⁻¹ s⁻¹.
In turn, B17 yielded a Kd of 0.53 nM, a koff of 0.000228 s⁻¹ and a kon of 428000 M⁻¹ s⁻¹.
As to B18, binding was characterised by a dissociation constant (Kd) of 0.64 nM, the koff is 0.000495 s⁻¹ and the association rate constant (kon) turned out to be 774000 M⁻¹ s⁻¹.
